From patent publication US20140371150A1 (UNIVERSITE DE NANTES, published 2014)

T1: human RANK on cells (human CD14+ monocytes; HEK-RANK cells) (human, UniProt Q9Y6Q6 30-616)
T1 sequence (looked up): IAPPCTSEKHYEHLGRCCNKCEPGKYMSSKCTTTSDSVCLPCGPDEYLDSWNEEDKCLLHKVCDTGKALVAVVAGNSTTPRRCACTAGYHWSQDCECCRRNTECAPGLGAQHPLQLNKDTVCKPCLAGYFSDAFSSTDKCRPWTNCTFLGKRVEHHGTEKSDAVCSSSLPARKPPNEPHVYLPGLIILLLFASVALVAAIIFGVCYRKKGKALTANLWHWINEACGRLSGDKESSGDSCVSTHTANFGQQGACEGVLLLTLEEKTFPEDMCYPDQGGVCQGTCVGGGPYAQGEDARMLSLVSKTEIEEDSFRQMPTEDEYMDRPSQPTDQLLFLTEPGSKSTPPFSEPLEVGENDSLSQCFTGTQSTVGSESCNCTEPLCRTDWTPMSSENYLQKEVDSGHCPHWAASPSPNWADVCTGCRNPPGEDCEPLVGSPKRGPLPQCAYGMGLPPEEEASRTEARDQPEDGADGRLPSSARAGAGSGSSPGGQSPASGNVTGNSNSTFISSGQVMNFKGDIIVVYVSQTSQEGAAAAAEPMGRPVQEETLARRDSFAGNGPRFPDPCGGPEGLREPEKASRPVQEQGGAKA

T2: mouse RANK on cells (murine CD11b+ monocytes; RAW264.7 cells) (mouse, UniProt O35305 31-625)
T2 sequence (looked up): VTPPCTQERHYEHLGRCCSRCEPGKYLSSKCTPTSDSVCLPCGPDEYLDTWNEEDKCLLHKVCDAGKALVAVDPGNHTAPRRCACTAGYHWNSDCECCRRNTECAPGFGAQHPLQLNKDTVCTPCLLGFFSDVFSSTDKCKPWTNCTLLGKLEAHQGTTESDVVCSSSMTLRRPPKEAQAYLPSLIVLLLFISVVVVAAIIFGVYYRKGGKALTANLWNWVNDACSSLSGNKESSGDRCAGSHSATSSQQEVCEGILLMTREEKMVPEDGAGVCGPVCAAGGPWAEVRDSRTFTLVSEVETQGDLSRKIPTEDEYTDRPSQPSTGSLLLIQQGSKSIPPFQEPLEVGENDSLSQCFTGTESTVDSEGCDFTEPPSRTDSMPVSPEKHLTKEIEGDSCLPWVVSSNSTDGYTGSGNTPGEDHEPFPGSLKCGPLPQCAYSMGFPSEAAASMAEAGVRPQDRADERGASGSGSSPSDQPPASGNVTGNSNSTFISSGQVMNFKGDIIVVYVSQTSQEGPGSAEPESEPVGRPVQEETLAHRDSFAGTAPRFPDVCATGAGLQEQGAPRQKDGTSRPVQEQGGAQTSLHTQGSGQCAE

T3: RANK-Fc carrier-free (R&D Systems) (human, UniProt Q9Y6Q6 30-212)
T3 construct: Bought from R&D Systems; Immobilized on the sensor chip for SPR and used in solution for NMR; also called hRANK; RANK-Fc CF; not shown: Fc part of the bought fusion protein
T3 sequence (looked up): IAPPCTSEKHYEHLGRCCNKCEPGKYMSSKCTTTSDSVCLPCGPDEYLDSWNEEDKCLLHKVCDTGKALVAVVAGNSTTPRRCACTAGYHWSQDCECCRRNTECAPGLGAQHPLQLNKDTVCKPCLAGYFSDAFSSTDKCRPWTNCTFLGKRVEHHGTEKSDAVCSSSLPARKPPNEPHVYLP


Legend:
[1] = biological target: T1, human RANK on cells (human CD14+ …); test: cell-based or functional assay
[2] = biological target: T2, mouse RANK on cells (murine CD11b+ …); test: cell-based or functional assay
[3] = biological target: T3, RANK-Fc carrier-free (R&D Systems); test: SPR (BIAcore 3000), RANK-Fc immobilized, single cycle kinetics, 1:1 Langmuir model
Protocol: Biosensor experiments were carried out on a BIAcore 3000 instrument (BIAcore) as published previously (Baud'Huin et al. 2009). Recombinant purified RANKL (2 μg/mL in 5 mM maleate, pH 5.75) or RANK-Fc carrier-free (5 μg/mL in sodium acetate buffer, pH 5.0) were covalently immobilized to the dextran matrix of a CMS sensor chip (BIAcore) at a flow rate of 5 μL/min. Immobilization levels ranging from 400 to 3000 Response Units (RU) for RANKL or 5000 RU for RANK were obtained. Binding assays were performed at 25° C. in 10 mM Hepes buffer, pH 7.4. The association phase was 180 seconds followed by a dissociation phase in the same buffer. Polypeptides binding studies to RANK or RANKL were determined using single cycle kinetics, starting with 100 μM of the polypeptide of interest followed by 2-fold serial dilutions (ranging from 100 to 0.78 μM). The sensorgrams were fitted to calculate the equilibrium-dissociation constants using the Langmuir 1:1 model with BiaEval 4.1 software (BIAcore). RANK-Fc CF, RANKL and OPG carrier-free were obtained from R&D Systems (Minneapolis, Minn., USA).
Binding of the polypeptides to RANK was studied using surface plasmon resonance (FIG. 1C). Several polypeptides bound to immobilized RANK in a dose-dependent manner, presented here is Pep1 (SEQ ID NO: 33).

Binder | IC50 of RANKL-induced osteoclast formation (TRAP-positive multinucleated cells), human CD14+ cells [1] | IC50 of RANKL-induced osteoclast formation (TRAP-positive multinucleated cells), murine CD11b+ cells [2] | Kd [3] | koff [3] | kon [3]
NVLKLCSGE (Pegylated forms (N-(PEG)5, N-(PEG)8) were tested only in gene expression assays and in vivo; also called polypeptide Pep8) [Pep8] | 40 µM | 30 µM | 10.5 µM | 0.0052 s⁻¹ | 495 M⁻¹ s⁻¹
ELASYIIITQLG (Synthetic designed peptide; the SPR text mentions no pegylation; also called polypeptide Pep1) [Pep1] |  |  | 20.6 µM | 0.000278 s⁻¹ | 
